Measurements taken from patent publication US6645504B1, “Bystander suppression of type I diabetes by oral administration of glucagon” (AutoImmune Inc., priority 1987, dated 2003).

What was measured:
[1] = tested on: MBP line; assay: Transwell culture suppression of MBP T cell line; format: cell-based, Lewis rats
Excerpt: Transwell Cultures. A dual chamber transwell culture system (Costar, Cambridge, Mass.), which is 24.5 mm in diameter and consists of two compartments separated by a semi-permeable polycarbonate membrane, with a pore size of 0.4 μm, was used. The two chambers are 1 mm apart, allowing cells to be coin-cubated in close proximity without direct cell-to-cell contact. To measure in vitro suppression of proliferative responses in transwell cultures, 5×10^4 MBP- or OVA-specific line cells, raised and maintained as previously described (Ben-Nun, A. et al., Eur. J. Immunol. 11:195, 1981), were cultured with 10^6 irradiated (2,500 rad) thymocytes, in 600 μl of proliferation media in the lower well. Spleen cells from orally tolerized rats or controls (fed BSA) were added to the upper well (5×10^5 cells in 200 μl). Spleen cells were removed 7-14 days after the last feeding, and a single cell suspension was prepared by pressing the spleens through a stainless steel mesh. MBP and OVA (50 μg/ml) were added in a volume of 20 μl. […] In some experiments, modulator cells were added in the lower well together with responder cells, and in these instances modulator cells were irradiated (1,250 rad) immediately before being placed in culture. Proliferation media consisted of RPMI 1640 (Gibco Laboratories, Grand Island, N.Y.) supplemented with […] 2-mercaptoethanol, 1% sodium pyruvate, 1% penicillin and streptomycin, 1% glutamine, 1% HEPES buffer, 1% nonessential amino acids, and 1% autologous serum. Each transwell was performed in quadruplicate. The transwells were incubated at 37° C. in a humidified 6% CO2 and 94% air atmosphere for 72 hours. After 54 hours of culture, each lower well was pulsed with 4 μCi of [^3H]thymidine and at 72 hours split and reseeded to three wells in a round-bottomed 96-well plate (Costar) for harvesting onto fiberglass filters and counting using standard liquid scintillation techniques. Percent suppression =100×(1−Δ A cpm responders cultured with modulators/Δ cpm of responders).

[2] = tested on: EAE; assay: Adoptive transfer of disease suppression; format: in vivo, Lewis rats; conditions: naive recipients immunized with MBP/CFA and given OVA subcutaneously; FIG. 9
Experimental: Adoptive Transfer Of Disease Suppression. In order to monitor the adoptive transfer of disease suppression occurring during Bystander Suppression donor rats were fed either 1 mg MBP, OVA, or KLH, five times at 2 day intervals and killed 7-14 days after the final feeding. Spleen cells were harvested, and incubated in vitro with the homologous antigen (50 μg/ml) in proliferation medium, for 72 hours. Cells were injected intraperitoneally: 10^8 cells for whole spleen populations or 5-6×10^7 cells for CD8− or CD4-depleted populations. Recipient animals were irradiated (250 rad) before adoptive transfer, immunized with MBP/CFA 6 hours after adoptive transfer, and challenged 8 hours later with 50 μg OVA.

[3] = irradiated modulators in lower well with MBP line + MBP 50 μg/ml
[4] = modulators in upper well, MBP line + MBP in lower well

B1: MBP: Guinea pig myelin basic protein purified from brain tissue (protein, UniProt P25188 1-167, looked up)
Myelin basic protein: ASQKRPSQRHGSKYLATASTMDHARHGFLPRHRDTGILDSIGRFFGSDRAAPKRGSGKDSHHAARTTHYGSLPQKSQRSQDENPVVHFFKNIVTPRTPPPSQGKGRGLSLSRFSWGAEGQKPGFGYGGRADYKSKGFKGAHDAQGTLSKIFKLGGRDSRSGSPMARR
- Percent Suppression [1, 3]: 51%
- Δ cpm [1, 3]: 18,412 ± 1,867 cpm
- Percent Suppression [1, 4]: 59%
- Δ cpm [1, 4]: 15,620 ± 2,294 cpm
- adoptive transfer of protection by spleen cells from fed animals [2]: adoptively transferred protection
